In publication PMC2885054:

Assays:
[1] = target: Bunyamwera virus (BUNV) nucleoprotein (N) (Bunyamwera virus) (UniProt P16495); experiment: co-IP; as a2, but with a viral transcript co-expressed: N from pT7riboBUNS (also full-length S antigenome RNA), or additionally pT7riboBUNM(+) or minigenome pT7riboBUNMREN(-); bands quantified by phosphorimager and normalised to expression
[2] = target: V5-tagged BUNV L protein expressed from a transfected cDNA construct (Bunyamwera virus) (UniProt P20470); experiment: as above

Substance | fold more co-precipitated than in cells transfected with pTM1-BUNS [1] | fold more co-precipitated than in cells transfected with pTM1-BUNS [2]
V5-tagged BUNV L protein expressed from a transfected cDNA construct (from UniProt P20470 1-2238) | 8 fold | –
Bunyamwera virus (BUNV) nucleoprotein (N) (from UniProt P16495 1-233) (natural protein) | – | 5 fold
